Source: PMC8548392, “Miniature type V-F CRISPR-Cas nucleases enable targeted DNA modification in cells” (Nature Communications, 2021)
Residue numbers refer to the chain shown, from its start. In names and notes the source's numbering stands. Blank lines part the entries; values can stand above or below the molecule they belong to.

Experiments:
[1] = target: AsCas12f1 (Acidibacillus sulfuroxidans Cas12f1) (Acidibacillus sulfuroxidans); test: mass photometry; binary complex with gRNA; 1 µM Cas12f1 protein and 500 nM gRNA in complex assembly buffer (10 mM Tris-HCl pH 7.5, 100 mM NaCl, 1 mM EDTA, 1 mM DTT), 30 min at 37 °C, then diluted 1:10
[2] = target: AsCas12f1 (Acidibacillus sulfuroxidans Cas12f1) (Acidibacillus sulfuroxidans); test: mass photometry; ternary complex with gRNA and dsDNA target; 200 nM Cas12f1 RNP and 25 nM DNA in binding buffer (40 mM Tris-HAc pH 8.4, 5 mM Mg acetate), 30 min at 45 °C, then diluted 1:10
[3] = target: the molecule itself; test: mass photometry; binary complex with gRNA; 1 µM Cas12f1 protein and 500 nM gRNA in complex assembly buffer (10 mM Tris-HCl pH 7.5, 100 mM NaCl, 1 mM EDTA, 1 mM DTT), 30 min at 37 °C, then diluted 1:10
dSpCas12f1 [4] = target: T1, dSpCas12f1 (Syntrophomonas palmitatica, UniProt P0DW62 1-497, D228A); test: mass photometry; binary complex 179 kDa, 2:1 protein:gRNA; EMSA: 40 mM Tris, 20 mM acetic acid pH 8.4, 1 mM EDTA, 0.1 mg/ml BSA, 10% glycerol, 5 mM Mg acetate, 1 nM DNA, 0-250 nM RNP, 30 min at room temperature or as indicated. Mass photometry: binary in 10 mM Tris-HCl pH 7.5, 100 mM NaCl, 1 mM EDTA, 1 mM DTT, 37 C; ternary in 40 mM Tris-acetate pH 8.4, 5 mM Mg acetate, 45 C; details: protein: recombinant; tags: 10xHis-MBP-TEV tag removed; chain copies: 2; single chain, folded
T1 sequence: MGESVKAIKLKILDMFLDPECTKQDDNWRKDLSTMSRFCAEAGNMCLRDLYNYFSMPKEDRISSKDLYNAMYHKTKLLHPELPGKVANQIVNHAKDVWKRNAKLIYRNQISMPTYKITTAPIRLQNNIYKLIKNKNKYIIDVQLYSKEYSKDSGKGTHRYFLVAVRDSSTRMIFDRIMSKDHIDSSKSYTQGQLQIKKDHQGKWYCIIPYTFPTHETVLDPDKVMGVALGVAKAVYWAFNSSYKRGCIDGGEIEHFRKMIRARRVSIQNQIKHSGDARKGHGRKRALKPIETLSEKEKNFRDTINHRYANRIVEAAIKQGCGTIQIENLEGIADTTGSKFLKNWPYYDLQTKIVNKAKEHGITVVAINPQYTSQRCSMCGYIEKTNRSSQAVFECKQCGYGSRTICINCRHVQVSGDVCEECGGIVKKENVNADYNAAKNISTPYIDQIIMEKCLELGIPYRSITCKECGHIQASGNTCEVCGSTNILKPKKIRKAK

dSpCas12f1 [5] = target: T1, dSpCas12f1; test: mass photometry; ternary 2:1:1, 5 mM Mg2+, incubated at 45 C; EMSA: 40 mM Tris, 20 mM acetic acid pH 8.4, 1 mM EDTA, 0.1 mg/ml BSA, 10% glycerol, 5 mM Mg acetate, 1 nM DNA, 0-250 nM RNP, 30 min at room temperature or as indicated. Mass photometry: binary in 10 mM Tris-HCl pH 7.5, 100 mM NaCl, 1 mM EDTA, 1 mM DTT, 37 C; ternary in 40 mM Tris-acetate pH 8.4, 5 mM Mg acetate, 45 C; details: protein: recombinant; tags: 10xHis-MBP-TEV tag removed; chain copies: 2; label: 32P 5'-end in EMSA; guide RNA + DNA duplex
dAsCas12f1 [6] = target: T2, dAsCas12f1 (Acidibacillus sulfuroxidans, UniProt A0A2U3D0N8 1-422, D225A); test: as above; details: protein: recombinant; tags: 10xHis-MBP-TEV tag removed; chain copies: 2; label: 32P 5'-end in EMSA; guide RNA + DNA duplex
T2 sequence: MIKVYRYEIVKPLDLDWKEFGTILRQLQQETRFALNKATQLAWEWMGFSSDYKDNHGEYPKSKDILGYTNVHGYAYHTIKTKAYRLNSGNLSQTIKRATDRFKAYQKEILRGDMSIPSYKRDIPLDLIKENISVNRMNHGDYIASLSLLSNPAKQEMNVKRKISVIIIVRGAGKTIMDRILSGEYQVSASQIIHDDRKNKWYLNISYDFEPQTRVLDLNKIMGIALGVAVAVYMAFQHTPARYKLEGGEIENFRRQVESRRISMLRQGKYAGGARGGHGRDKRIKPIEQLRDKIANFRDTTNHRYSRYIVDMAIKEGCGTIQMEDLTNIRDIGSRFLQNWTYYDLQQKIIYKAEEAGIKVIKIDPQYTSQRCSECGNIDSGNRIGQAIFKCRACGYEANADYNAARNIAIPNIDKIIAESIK

dSpCas12f1 [7] = target: T1, dSpCas12f1; test: EMSA; 5 mM Mg2+, room temperature; EMSA: 40 mM Tris, 20 mM acetic acid pH 8.4, 1 mM EDTA, 0.1 mg/ml BSA, 10% glycerol, 5 mM Mg acetate, 1 nM DNA, 0-250 nM RNP, 30 min at room temperature or as indicated. Mass photometry: binary in 10 mM Tris-HCl pH 7.5, 100 mM NaCl, 1 mM EDTA, 1 mM DTT, 37 C; ternary in 40 mM Tris-acetate pH 8.4, 5 mM Mg acetate, 45 C; details: protein: recombinant; tags: 10xHis-MBP-TEV tag removed; chain copies: 2; label: 32P 5'-end; guide RNA + ssDNA
dAsCas12f1 [8] = target: T2, dAsCas12f1; test: as above; details: protein: recombinant; tags: 10xHis-MBP-TEV tag removed; chain copies: 2; label: 32P 5'-end; guide RNA + ssDNA

stoichiometry N [1]: 2 | stoichiometry N [2]: 2
Molecule: AsCas12f1 (Acidibacillus sulfuroxidans Cas12f1) (from UniProt A0A2U3D0N8 1-422) (enzyme)

B1: Nuclease inactivated or dead (d) SpCas12f1 (D228A) (enzyme, Syntrophomonas palmitatica, UniProt P0DW62 1-497, looked up)
chain: T1 sequence
notes: SpCas12f1, type V-F CRISPR-Cas nuclease of Syntrophomonas palmitatica, 497 aa, with D228A in the RuvC active site; The tag was removed at a TEV site (ENLYFQS), so a residue of the site may remain at the N-terminus; also called dCas12f1; source: E. coli Arctic Express (DE3), purified (Ni2+ HiTrap chelating, heparin, TEV cleavage, heparin); not shown: 10xHis, N-terminal, cleaved; MBP, N-terminal, …
stoichiometry N [3]: 2

B2: SpCas12f1 sgRNA T1, 18 nt spacer (structured_RNA)
RNA: GGGAUUUACUCUGUUUCGCGCGCCAGGGCAGUUAGGUGCCCUAAAAGAGCGAAGUGGCCGAAAGGAAAGGCUAACGCUUCUCUAACGCUACGGCGACCUUGGCGAAAUGCCAUCAAUACCACGCGGCCCGAAAGGGUUCGCGCGAAACUGAGUAAUGAAAGUCGCAUCUUGCGUAAGCGCGUGGAUUGAAACAGUUGACCCAACGUCGCC
binding result (dSpCas12f1 [4]): binds

B3: Sp sgRNA (18 nt spacer) + dsDNA target with PAM (mixed)
DNA 1: GCACCTTACTGCAAGGTAGCCACGTTCAGTTGACCCAACGTCGCCGGCGTGCACAATCTAGATGCATCAGCTGC
DNA 2: GCAGCTGATGCATCTAGATTGTGCACGCCGGCGACGTTGGGTCAACTGAACGTGGCTACCTTGCAGTAAGGTGC
binding result (dSpCas12f1 [5]): binds

B4: As sgRNA + dsDNA target with PAM (mixed)
DNA 1: B3 DNA 1 with C21G, A22T, C23A, G24T, C27A
DNA 2: B3 DNA 2 with G48T, C51A, G52T, T53A, G54C
binding result (dAsCas12f1 [6]): binds

B5: Sp sgRNA (18 nt spacer) + ssDNA target strand (mixed)
DNA: B3 DNA 2
binding result (dSpCas12f1 [7]): binds

B6: As sgRNA + ssDNA target strand (mixed)
DNA: B3 DNA 2 with G48T, C51A, G52T, T53A, G54C
binding result (dAsCas12f1 [8]): binds
